The record followed here is paper PMC4105859, “Characterization of the SAM domain of the PKD-related protein ANKS6 and its interaction with ANKS3” (BMC Structural Biology, 2014).

B3: His6-tagged ANKS3-SAM (domain or fragment, human, UniProt Q6ZW76 421-490, looked up)
chain: RAPYSGPQDLAALLEQIGCLKYLQVFEEQDVDLRIFLTLTESDLKEIGITLFGPKRKMTSAIARWHSSAR
notes: ANKS3, human, SAM domain, residues 421-490 of UniProt Q6ZW76; pET28 vector; also called ANKS3-SAM (negGFP removed); ANKS3-SAM precipitate; source: Rosetta(DE3) cells, purified (Ni-NTA); precipitated after purification

One data set addresses T1, ANKS3-SAM F53E.
T1 chain: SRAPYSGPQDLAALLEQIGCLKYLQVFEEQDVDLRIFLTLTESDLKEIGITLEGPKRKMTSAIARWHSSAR
Nature of the data set: SPR. To be noted: chain shown with the change, read off a plot.

Data set [1] concerns the target T2, ANKS6-SAM wt (human, UniProt Q68DC2 771-840).
T2 chain: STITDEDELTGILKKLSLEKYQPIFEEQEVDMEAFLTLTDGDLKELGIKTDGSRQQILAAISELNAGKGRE
The data set is described as follows: SPR; ANKS6-SAM wt immobilised on CM5 (EDC/NHS), ANKS3-SAM I36E flowed over; Biacore T100, 21°C, 20 mM HEPES pH 7.5, 1 mM DTT, 0.04% IGEPAL CA-630, 0.15 M NaCl; equilibrium, 1:1 steady-state model, triplicate. For orientation: In SPR one partner is held on a chip, and binding of the other changes the refractive index at the surface.

In data set [2] the target is T2, ANKS6-SAM wt. The data set is described as follows: SPR; value printed in panel; legend gives 249 nM.
A further data set addresses ANKS3-SAM F53E (human). Nature of the data set: SPR; ANKS3-SAM F53E immobilised on CM5 (EDC/NHS), ANKS3-SAM I36E flowed over; Biacore T100, 21°C, 20 mM HEPES pH 7.5, 1 mM DTT, 0.04% IGEPAL CA-630, 0.15 M NaCl; equilibrium, 1:1 steady-state model, triplicate; Kd called an approximation since saturation was not reached.
Data set [3] concerns the molecule itself. The data set is described as follows: negative stain transmission electron microscopy; purified protein or its precipitate on carbon/formvar grids, 1% uranyl acetate, 120 kV.
The target of the data set “His6-tagged ANKS3-SAM” is B3. The data set is described as follows: resolubilisation of a precipitate; His6-ANKS3-SAM precipitate (3.2 mg/mL dialysed into 20 mM Tris pH 7, 0.25 M NaCl, 1 mM DTT); His6-ANKS6-SAM at 3.3 mg/mL or buffer alone added at 2:1, 1:1, 1:2; 3 h on ice. The conditions noted are these: both partners purified.

B1: ANKS3-SAM I36E (domain or fragment)
chain: SRAPYSGPQDLAALLEQIGCLKYLQVFEEQDVDLREFLTLTESDLKEIGITLFGPKRKMTSAIARWHSSAR
With B1, the other: Log (Kd) in the data set with ANKS3-SAM F53E (Log [NaCl] est. -0.60) came to 4; with ANKS3-SAM F53E (Log [NaCl] est. -0.70) it was 3.9; with ANKS3-SAM F53E (Log [NaCl] est. -0.82) it was 3.8; in the data set with ANKS3-SAM F53E (Log [NaCl] est. -1.0), 3.7. The Kd in the data set with ANKS6-SAM wt [1] was 249 nM; with ANKS6-SAM wt [2] it was 270 nM; in the data set with ANKS3-SAM F53E (human), 5800 nM.

B2: negGFP-ANKS3-SAM fusion protein (domain or fragment, human, UniProt Q6ZW76 421-490, looked up)
chain: RAPYSGPQDLAALLEQIGCLKYLQVFEEQDVDLRIFLTLTESDLKEIGITLFGPKRKMTSAIARWHSSAR
notes: ANKS3 (ankyrin repeat and SAM-domain containing protein 3), human, SAM domain, residues 421-490 of UniProt Q6ZW76; source: ARI814 cells, in lysate (native gel); purified (Ni-NTA, HiTrap Q) for TEM
B2: in data set [3], the binding result was “binds”.

For the molecule B3, in data set [3], the binding result is recorded as “binds”.

B4: His6-tagged ANKS6-SAM (domain or fragment, human, UniProt Q68DC2 771-840, looked up)
chain: TITDEDELTGILKKLSLEKYQPIFEEQEVDMEAFLTLTDGDLKELGIKTDGSRQQILAAISELNAGKGRE
notes: ANKS6, human, SAM domain, residues 771-840 of UniProt Q68DC2; pBAD-HisA vector; source: ARI814 cells, purified (HiTrap IMAC, HiTrap Q)
For the molecule B4, in the data set with His6-tagged ANKS3-SAM, the binding result is reported as “binds”.

The term Kd denotes the equilibrium constant for the complex coming apart.
